Data reported in paper PMC5309722, “A substrate-bound structure of cyanobacterial biliverdin reductase identifies stacked substrates as critical for activity” (Nature Communications, 2017).

Legend:
Syn BVR = target: T1, Syn BVR (Synechocystis sp. PCC 6803, UniProt P72782); experiment: X-ray crystal structure, soaked crystal, […] Å; format: binding; conditions: 10 mM NADP+ soak; no biliverdin; cleft between the two domains
T1 construct: gene bvdR; full length, 328 residues; N-terminal His6 tag (pET15b), E. coli C41(DE3); tag cut with thrombin for crystals

[1] = substrate: C=CC1=C(C)/C(=C/c2[nH]c(/C=C3N=C(/C=C4\NC(=O)C(C)=C4C=C)C(C)=C\3CCC(=O)O)c(CCC(=O)O)c2C)NC1=O; experiment: steady-state kinetics, A450 bilirubin formation; format: biochemical, Synechocystis sp. PCC 6803; conditions: 100 μM NADPH, 100 mM citrate pH 5.75
Description: steady-state kinetics, A450 bilirubin formation on Syn BVR

[2] = substrate: C=CC1=C(C)/C(=C/c2[nH]c(/C=C3N=C(/C=C4\NC(=O)C(C)=C4C=C)C(C)=C\3CCC(=O)O)c(CCC(=O)O)c2C)NC1=O; experiment: steady-state kinetics, A450 bilirubin formation; format: biochemical, Homo sapiens; conditions: 100 μM NADPH, 100 mM Tris-HCl pH 8.75
Description: steady-state kinetics, A450 bilirubin formation on human BVR

[3] = substrate: C=CC1=C(C)/C(=C/c2[nH]c(/C=C3N=C(/C=C4\NC(=O)C(C)=C4C=C)C(C)=C\3CCC(=O)O)c(CCC(=O)O)c2C)NC1=O; experiment: steady-state kinetics, A450 bilirubin formation; format: biochemical, Rattus norvegicus; conditions: 100 μM NADPH, 100 mM Tris-HCl pH 8.75
Description: steady-state kinetics, A450 bilirubin formation on rat BVR

Molecule: NC(=O)c1ccc[n+]([C@@H]2O[C@H](COP(=O)(O)OP(=O)(O)OC[C@H]3O[C@@H](n4cnc5c(N)ncnc54)[C@H](OP(=O)(O)O)[C@@H]3O)[C@@H](O)[C@H]2O)c1 [NADP^+]
- X-ray crystal structure, soaked crystal, 2.7 Å (Syn BVR): NADP^+ binds in the cleft between the two domains

B1: Syn BVR (Synechocystis sp. PCC 6803 substr. Kazusa; R246A) (protein)
chain: MSENFAVATPVRVGIVGTGYAAQRRAEVFRGDRRSQLVSFWGNSEANTAKFADTFGVRPQQSWQALINDPEIDLVLIATINQLHGAIAEAALQAGKHVVLEYPLALTYAMGKKLQQLAREKGKLLHVEHIELLGGVHQAIRQNLGKIGEVFYARYSTIMGQNPAPQRWTYHHQQFGFPLVAALSRISRFTDLFGTVQQVDAQCRFWDQPNPEYFRACLATAYLQFNNGLKAEVIYGKGEVFHQNEAIFTLHGDRGTLIFVGETGRLIQGQTETEITVGSRRGLFRQDTEAVLDYLTTGKPLYVDLEASLYALEVADLCAQACGYKVEN
notes: full length, 328 residues; N-terminal His6 tag (pET15b), E. coli C41(DE3); tag cut with thrombin for crystals
- Km [1]: 5.1 ± 0.8 µM
- kcat [1]: 11 ± 0.6 s⁻¹
- kcat/Km [1]: 2.2e+06 M⁻¹ s⁻¹

B2: human BVR (Homo sapiens) (protein)
chain: MNAEPERKFGVVVVGVGRAGSVRMRDLRNPHPSSAFLNLIGFVSRRELGSIDGVQQISLEDALSSQEVEVAYICSESSSHEDYIRQFLNAGKHVLVEYPMTLSLAAAQELWELAEQKGKVLHEEHVELLMEEFAFLKKEVVGKDLLKGSLLFTAGPLEEERFGFPAFSGISRLTWLVSLFGELSLVSATLEERKEDQYMKMTVCLETEKKSPLSWIEEKGPGLKRNRYLSFHFKSGSLENVPNVGVNKNIFLKDQNIFVQKLLGQFSEKELAAEKKRILHCLGLAEEIQKYCCSRK
notes: C-terminal His tag (pET21a(+)), codon-optimized synthetic gene, E. coli BL21(DE3)
- Km [2]: 20.7 ± 10.1 µM
- kcat [2]: 94.8 ± 31.4 s⁻¹
- kcat/Km [2]: 4.6e+06 M⁻¹ s⁻¹

B3: human BVR (Homo sapiens; Y98F) (protein)
chain: MNAEPERKFGVVVVGVGRAGSVRMRDLRNPHPSSAFLNLIGFVSRRELGSIDGVQQISLEDALSSQEVEVAYICSESSSHEDYIRQFLNAGKHVLVEFPMTLSLAAAQELWELAEQKGKVLHEEHVELLMEEFAFLKKEVVGKDLLKGSLLFTAGPLEEERFGFPAFSGISRLTWLVSLFGELSLVSATLEERKEDQYMKMTVCLETEKKSPLSWIEEKGPGLKRNRYLSFHFKSGSLENVPNVGVNKNIFLKDQNIFVQKLLGQFSEKELAAEKKRILHCLGLAEEIQKYCCSRK
notes: as for B2
- Km [2]: 3.8 ± 0.3 µM
- kcat [2]: 16.8 ± 0.5 s⁻¹
- kcat/Km [2]: 4.4e+06 M⁻¹ s⁻¹

B4: human BVR (Homo sapiens; R172A) (protein)
chain: MNAEPERKFGVVVVGVGRAGSVRMRDLRNPHPSSAFLNLIGFVSRRELGSIDGVQQISLEDALSSQEVEVAYICSESSSHEDYIRQFLNAGKHVLVEYPMTLSLAAAQELWELAEQKGKVLHEEHVELLMEEFAFLKKEVVGKDLLKGSLLFTAGPLEEERFGFPAFSGISALTWLVSLFGELSLVSATLEERKEDQYMKMTVCLETEKKSPLSWIEEKGPGLKRNRYLSFHFKSGSLENVPNVGVNKNIFLKDQNIFVQKLLGQFSEKELAAEKKRILHCLGLAEEIQKYCCSRK
notes: as for B2
- Km [2]: 87.7 ± 35.7 µM
- kcat [2]: 17.9 ± 6.3 s⁻¹
- kcat/Km [2]: 200000 M⁻¹ s⁻¹

B5: rat BVR (Rattus norvegicus) (protein)
chain: MDAEPKRKFGVVVVGVGRAGSVRLRDLKDPRSAAFLNLIGFVSRRELGSLDEVRQISLEDALRSQEIDVAYICSESSSHEDYIRQFLQAGKHVLVEYPMTLSFAAAQELWELAAQKGRVLHEEHVELLMEEFEFLRREVLGKELLKGSLRFTASPLEEERFGFPAFSGISRLTWLVSLFGELSLISATLEERKEDQYMKMTVQLETQNKGLLSWIEEKGPGLKRNRYVNFQFTSGSLEEVPSVGVNKNIFLKDQDIFVQKLLDQVSAEDLAAEKKRIMHCLGLASDIQKLCHQKK
notes: C-terminal His tag (pET21a-rat bvr), E. coli BL21(DE3)
- Km [3]: 4.6 ± 1.1 µM
- kcat [3]: 69.3 ± 8.5 s⁻¹
- kcat/Km [3]: 1.51e+07 M⁻¹ s⁻¹

B6: rat BVR (Rattus norvegicus; Y97F) (protein)
chain: MDAEPKRKFGVVVVGVGRAGSVRLRDLKDPRSAAFLNLIGFVSRRELGSLDEVRQISLEDALRSQEIDVAYICSESSSHEDYIRQFLQAGKHVLVEFPMTLSFAAAQELWELAAQKGRVLHEEHVELLMEEFEFLRREVLGKELLKGSLRFTASPLEEERFGFPAFSGISRLTWLVSLFGELSLISATLEERKEDQYMKMTVQLETQNKGLLSWIEEKGPGLKRNRYVNFQFTSGSLEEVPSVGVNKNIFLKDQDIFVQKLLDQVSAEDLAAEKKRIMHCLGLASDIQKLCHQKK
notes: as for B5
- Km [3]: 11.7 ± 1.0 µM
- kcat [3]: 13.6 ± 0.6 s⁻¹
- kcat/Km [3]: 1.2e+06 M⁻¹ s⁻¹

B7: rat BVR (Rattus norvegicus; R171A) (protein)
chain: MDAEPKRKFGVVVVGVGRAGSVRLRDLKDPRSAAFLNLIGFVSRRELGSLDEVRQISLEDALRSQEIDVAYICSESSSHEDYIRQFLQAGKHVLVEYPMTLSFAAAQELWELAAQKGRVLHEEHVELLMEEFEFLRREVLGKELLKGSLRFTASPLEEERFGFPAFSGISALTWLVSLFGELSLISATLEERKEDQYMKMTVQLETQNKGLLSWIEEKGPGLKRNRYVNFQFTSGSLEEVPSVGVNKNIFLKDQDIFVQKLLDQVSAEDLAAEKKRIMHCLGLASDIQKLCHQKK
notes: as for B5
- Km [3]: 24.4 ± 1.5 µM
- kcat [3]: 6 ± 0.2 s⁻¹
- kcat/Km [3]: 200000 M⁻¹ s⁻¹

B8: rat BVR (Rattus norvegicus; R171E) (protein)
chain: MDAEPKRKFGVVVVGVGRAGSVRLRDLKDPRSAAFLNLIGFVSRRELGSLDEVRQISLEDALRSQEIDVAYICSESSSHEDYIRQFLQAGKHVLVEYPMTLSFAAAQELWELAAQKGRVLHEEHVELLMEEFEFLRREVLGKELLKGSLRFTASPLEEERFGFPAFSGISELTWLVSLFGELSLISATLEERKEDQYMKMTVQLETQNKGLLSWIEEKGPGLKRNRYVNFQFTSGSLEEVPSVGVNKNIFLKDQDIFVQKLLDQVSAEDLAAEKKRIMHCLGLASDIQKLCHQKK
notes: as for B5
- Km [3]: 45.7 ± 15.4 µM
- kcat [3]: 0.7 ± 0.2 s⁻¹
- kcat/Km [3]: 20000 M⁻¹ s⁻¹

B9: Syn BVR (Synechocystis sp. PCC 6803 substr. Kazusa) (protein)
chain: MSENFAVATPVRVGIVGTGYAAQRRAEVFRGDRRSQLVSFWGNSEANTAKFADTFGVRPQQSWQALINDPEIDLVLIATINQLHGAIAEAALQAGKHVVLEYPLALTYAMGKKLQQLAREKGKLLHVEHIELLGGVHQAIRQNLGKIGEVFYARYSTIMGQNPAPQRWTYHHQQFGFPLVAALSRISRFTDLFGTVQQVDAQCRFWDQPNPEYFRACLATAYLQFNNGLKAEVIYGKGEVFHQNERIFTLHGDRGTLIFVGETGRLIQGQTETEITVGSRRGLFRQDTEAVLDYLTTGKPLYVDLEASLYALEVADLCAQACGYKVEN
notes: as for B1
- Km [1]: 1.8 ± 0.3 µM
- kcat [1]: 7.1 ± 0.2 s⁻¹
- kcat/Km [1]: 3.9e+06 M⁻¹ s⁻¹

B10: Syn BVR (Synechocystis sp. PCC 6803 substr. Kazusa; Y102F) (protein)
chain: MSENFAVATPVRVGIVGTGYAAQRRAEVFRGDRRSQLVSFWGNSEANTAKFADTFGVRPQQSWQALINDPEIDLVLIATINQLHGAIAEAALQAGKHVVLEFPLALTYAMGKKLQQLAREKGKLLHVEHIELLGGVHQAIRQNLGKIGEVFYARYSTIMGQNPAPQRWTYHHQQFGFPLVAALSRISRFTDLFGTVQQVDAQCRFWDQPNPEYFRACLATAYLQFNNGLKAEVIYGKGEVFHQNERIFTLHGDRGTLIFVGETGRLIQGQTETEITVGSRRGLFRQDTEAVLDYLTTGKPLYVDLEASLYALEVADLCAQACGYKVEN
notes: as for B1
- Km [1]: 4.0 ± 0.3 µM
- kcat [1]: 2.7 ± 0.07 s⁻¹
- kcat/Km [1]: 700000 M⁻¹ s⁻¹

B11: Syn BVR (Synechocystis sp. PCC 6803 substr. Kazusa; T169A) (protein)
chain: MSENFAVATPVRVGIVGTGYAAQRRAEVFRGDRRSQLVSFWGNSEANTAKFADTFGVRPQQSWQALINDPEIDLVLIATINQLHGAIAEAALQAGKHVVLEYPLALTYAMGKKLQQLAREKGKLLHVEHIELLGGVHQAIRQNLGKIGEVFYARYSTIMGQNPAPQRWAYHHQQFGFPLVAALSRISRFTDLFGTVQQVDAQCRFWDQPNPEYFRACLATAYLQFNNGLKAEVIYGKGEVFHQNERIFTLHGDRGTLIFVGETGRLIQGQTETEITVGSRRGLFRQDTEAVLDYLTTGKPLYVDLEASLYALEVADLCAQACGYKVEN
notes: as for B1
- Km [1]: 3.4 ± 0.5 µM
- kcat [1]: 13.1 ± 0.5 s⁻¹
- kcat/Km [1]: 3.9e+06 M⁻¹ s⁻¹

B12: Syn BVR (Synechocystis sp. PCC 6803 substr. Kazusa; R185A) (protein)
chain: MSENFAVATPVRVGIVGTGYAAQRRAEVFRGDRRSQLVSFWGNSEANTAKFADTFGVRPQQSWQALINDPEIDLVLIATINQLHGAIAEAALQAGKHVVLEYPLALTYAMGKKLQQLAREKGKLLHVEHIELLGGVHQAIRQNLGKIGEVFYARYSTIMGQNPAPQRWTYHHQQFGFPLVAALSAISRFTDLFGTVQQVDAQCRFWDQPNPEYFRACLATAYLQFNNGLKAEVIYGKGEVFHQNERIFTLHGDRGTLIFVGETGRLIQGQTETEITVGSRRGLFRQDTEAVLDYLTTGKPLYVDLEASLYALEVADLCAQACGYKVEN
notes: as for B1
- Km [1]: 6.9 ± 0.6 µM
- kcat [1]: 0.7 ± 0.02 s⁻¹
- kcat/Km [1]: 100000 M⁻¹ s⁻¹

B13: Syn BVR (Synechocystis sp. PCC 6803 substr. Kazusa; R185K) (protein)
chain: MSENFAVATPVRVGIVGTGYAAQRRAEVFRGDRRSQLVSFWGNSEANTAKFADTFGVRPQQSWQALINDPEIDLVLIATINQLHGAIAEAALQAGKHVVLEYPLALTYAMGKKLQQLAREKGKLLHVEHIELLGGVHQAIRQNLGKIGEVFYARYSTIMGQNPAPQRWTYHHQQFGFPLVAALSKISRFTDLFGTVQQVDAQCRFWDQPNPEYFRACLATAYLQFNNGLKAEVIYGKGEVFHQNERIFTLHGDRGTLIFVGETGRLIQGQTETEITVGSRRGLFRQDTEAVLDYLTTGKPLYVDLEASLYALEVADLCAQACGYKVEN
notes: as for B1
- Km [1]: 12.6 ± 1.5 µM
- kcat [1]: 0.9 ± 0.05 s⁻¹
- kcat/Km [1]: 70000 M⁻¹ s⁻¹
